The record followed here is patent US20260116982A1.

In this assay the target is CD1a antigen on CD1a+ T-ALL cells (Jurkat, MOLT4, primary cortical T-ALL blasts) and cortical thymocytes (human) (UniProt P06126). The assay can be described thus: cell-based or functional assay.

As for “CD1a CAR (second-generation chimeric antigen receptor with the anti-CD1a scFv derived from clone NA1/34.HLK, CD8 TM spacer, 4-1BB (CD137) and CD3ζ signaling domains), expressed on T cells”, the specific cell lysis of CD1a+ T-ALL cell lines (Jurkat, MOLT4), 16 h assay, E:T 2:1 or 4:1 was in the range of 50 to 80%.
